Laboratory results reported in article PMC11720309, “Transcriptional regulation of miR528-PPO module by miR156 targeted SPLs orchestrates chilling response in banana”.

T1: MaSPL5 (UniProt A0A804I0H4 1-393)
T1 sequence: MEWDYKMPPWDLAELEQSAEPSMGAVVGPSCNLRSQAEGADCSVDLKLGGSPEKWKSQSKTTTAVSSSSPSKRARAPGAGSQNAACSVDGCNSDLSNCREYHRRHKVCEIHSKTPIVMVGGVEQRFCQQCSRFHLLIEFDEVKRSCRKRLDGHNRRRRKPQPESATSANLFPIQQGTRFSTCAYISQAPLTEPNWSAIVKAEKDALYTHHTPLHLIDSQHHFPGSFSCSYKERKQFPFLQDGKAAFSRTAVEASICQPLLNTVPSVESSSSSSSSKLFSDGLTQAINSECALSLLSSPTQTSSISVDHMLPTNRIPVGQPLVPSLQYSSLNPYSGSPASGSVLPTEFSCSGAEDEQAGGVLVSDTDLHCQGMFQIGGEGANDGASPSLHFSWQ

T2: MaSPL44 (UniProt A0A804KAB2 1-473)
T2 sequence: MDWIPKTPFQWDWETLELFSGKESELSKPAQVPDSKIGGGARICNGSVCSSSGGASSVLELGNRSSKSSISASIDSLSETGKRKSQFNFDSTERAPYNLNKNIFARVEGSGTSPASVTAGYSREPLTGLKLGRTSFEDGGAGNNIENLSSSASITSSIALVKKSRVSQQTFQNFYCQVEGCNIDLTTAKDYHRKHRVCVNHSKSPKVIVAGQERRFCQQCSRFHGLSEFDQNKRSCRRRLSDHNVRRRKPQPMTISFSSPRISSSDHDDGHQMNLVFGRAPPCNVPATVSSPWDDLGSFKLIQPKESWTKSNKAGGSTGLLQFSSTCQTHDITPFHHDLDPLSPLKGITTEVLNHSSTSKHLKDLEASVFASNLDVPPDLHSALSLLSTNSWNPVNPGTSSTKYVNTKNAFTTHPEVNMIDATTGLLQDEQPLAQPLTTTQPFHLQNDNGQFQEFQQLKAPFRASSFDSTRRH

T3: MaSPL4 (UniProt A0A804HZD8 1-178)
T3 sequence: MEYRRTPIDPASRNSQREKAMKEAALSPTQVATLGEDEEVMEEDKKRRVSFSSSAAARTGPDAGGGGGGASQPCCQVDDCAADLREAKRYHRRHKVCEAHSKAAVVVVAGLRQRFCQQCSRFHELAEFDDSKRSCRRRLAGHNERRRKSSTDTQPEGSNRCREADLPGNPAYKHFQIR

B1: MamiR528pro-mut-probe (dsDNA)
DNA 1: GCGCAAAAAAGTGCAAAAATAAGATACTACACAAACCACACAATAGAAAAAACACTATC
DNA 2: GATAGTGTTTTTTCTATTGTGTGGTTTGTGTAGTATCTTATTTTTGCACTTTTTTGCGC
B2: MamiR528pro-probe (dsDNA)
DNA 1: GCGCAGTACAGTGCAGTACTAAGATACTACACAAACCACACAATAGAAGTACCACTATC
DNA 2: GATAGTGGTACTTCTATTGTGTGGTTTGTGTAGTATCTTAGTACTGCACTGTACTGCGC

How the values were obtained:
Conditions in all cases: protein: recombinant; tags: GST (N-terminal, pGEX-4T-3); blunt
[1] = biological target: T1, MaSPL5; test: competition; unlabeled competitor vs biotin-N1 (EMSA); Chemiluminescent EMSA Kit (Thermo Fisher); buffer, salt, pH and temperature not stated
[2] = biological target: T2, MaSPL44; test: as above
[3] = biological target: T3, MaSPL4; test: as above
[4] = biological target: T1, MaSPL5; test: EMSA; Chemiluminescent EMSA Kit (Thermo Fisher); buffer, salt, pH and temperature not stated
[5] = biological target: T2, MaSPL44; test: as above
[6] = biological target: T3, MaSPL4; test: as above

Binder | binding result [1] | binding result [2] | binding result [3] | binding result [4] | binding result [5] | binding result [6]
B1 | no binding | no binding | no binding |  |  | 
B2 |  |  |  | binds | binds | binds
